Reference: patent publication US20240269271A1

Key:
HVEM [1] = experiment: competition ELISA, plates coated with BTLA, HVEM binding read out
HVEM [2] = experiment: competition ELISA, plates coated with BTLA, HVEM binding read out; control protein

| Substance | percent inhibition of HVEM binding to BTLA (HVEM [1]) | percent inhibition of HVEM binding to BTLA (HVEM [2]) |
| --- | --- | --- |
| commercially available gD protein (ligand) | 90% | – |
| sequence of the V2 loop of HIV envelope linked to a His-tag | – | 45% |
